Reference: PMC8285493 (Nature Communications, 2021)
Where two headings read alike, the source gives them in different places.

B1: catalytic domain of PDE3A (PDE3A^CAT), residues 640-1141 (domain or fragment, human, UniProt Q14432 640-1141, looked up)
chain: EDETECLREPLRKASACSTYAPETMMFLDKPILAPEPLVMDNLDSIMEQLNTWNFPIFDLVENIGRKCGRILSQVSYRLFEDMGLFEAFKIPIREFMNYFHALEIGYRDIPYHNRIHATDVLHAVWYLTTQPIPGLSTVINDHGSTSDSDSDSGFTHGHMGYVFSKTYNVTDDKYGCLSGNIPALELMALYVAAAMHDYDHPGRTNAFLVATSAPQAVLYNDRSVLENHHAAAAWNLFMSRPEYNFLINLDHVEFKHFRFLVIEAILATDLKKHFDFVAKFNGKVNDDVGIDWTNENDRLLVCQMCIKLADINGPAKCKELHLQWTDGIVNEFYEQGDEEASLGLPISPFMDRSAPQLANLQESFISHIVGPLCNSYDSAGLMPGKWVEDSDESGDTDDPEEEEEEAPAPNEEETCENNESPKKKTFKRRKIYCQITQHLLQNHKMWKKVIEEEQRLAGIENQSLDQTPQSHSSEQIQAIKEEEEEKGKPRGEEIPTQKPDQ
B2: biotinylated Avi-tagged PDE3A^CAT (domain or fragment, human, UniProt Q14432 640-1141, looked up)
chain: B1 chain
modifications: biotin on the Avi-tag (BirA ligase)
B3: full-length SLFN12 (natural protein, human, UniProt Q8IYM2 1-578, looked up)
chain: MNISVDLETNYAELVLDVGRVTLGENSRKKMKDCKLRKKQNESVSRAMCALLNSGGGVIKAEIENEDYSYTKDGIGLDLENSFSNILLFVPEYLDFMQNGNYFLIFVKSWSLNTSGLRITTLSSNLYKRDITSAKVMNATAALEFLKDMKKTRGRLYLRPELLAKRPCVDIQEENNMKALAGVFFDRTELDRKEKLTFTESTHVEIKNFSTEKLLQRIKEILPQYVSAFANTDGGYLFIGLNEDKEIIGFKAEMSDLDDLEREIEKSIRKMPVHHFCMEKKKINYSCKFLGVYDKGSLCGYVCALRVERFCCAVFAKEPDSWHVKDNRVMQLTRKEWIQFMVEAEPKFSSSYEEVISQINTSLPAPHSWPLLEWQRQRHHCPGLSGRITYTPENLCRKLFLQHEGLKQLICEEMDSVRKGSLIFSRSWSVDLGLQENHKVLCDALLISQDSPPVLYTFHMVQDEEFKGYSTQTALTLKQKLAKIGGYTKKVCVMTKIFYLSPEGMTSCQYDLRSQVIYPESYYFTRRKYLLKALFKALKRLKSLRDQFSFAENLYQIIGIDCFQKNDKKMFKSCRRLT

Columns and labels:
SEC-MALS [1] = target: the molecule itself; assay: SEC-MALS
AUC = target: the molecule itself; assay: AUC
His6-MBP-SLFN12 = His6-MBP-SLFN12 (human, UniProt Q8IYM2 1-578); assay: pull-down
full-length SLFN12 = target: B3; assay: BLI
SEC-MALS [2] = target: the molecule itself; assay: SEC-MALS; remark: listed apart in the source
[3] = target: B1; assay: SEC-MALS
[4] = target: B2; assay: BLI

Row | binding result (His6-MBP-SLFN12) | Kd (full-length SLFN12) | stoichiometry N [3] | KD with DNMDP [4] | Binder | stoichiometry N (SEC-MALS [1]) | Kd (AUC) | stoichiometry N (SEC-MALS [2])
1 | binds | – | – | – | B1 | 2 | 40 nM | –
2 | – | 320 nM | – | – | B2 | – | – | –
3 | – | – | 1 SLFN12 per PDE3A^CAT (2:2) | 65 nM | B3 | – | 870 nM | 2
